Laboratory results: paper PMC7385124, “The molecular basis of thioalcohol production in human body odour” (Scientific Reports, 2020)

Legend:
Assay in all cases: purified protein, by the assay type
Parameters in all cases: DTNB thiol release, A412, continuous steady-state Michaelis-Menten kinetics of C-S lyase
Conditions in all cases: pH 7.8; 37.0 °C
[1] = substrate: CCCC(C)(CCO)SC[C@H](N)C(=O)O
Protocol: (§1) In vitro activity assays were performed using an Epoch2 (BioTek) plate reader. Reactions were measured in 96-well plate. A continuous assay, described previously[3] was used to measure 3M3SH. A 200 μL reaction contained […], variable amounts of substrate and 0.4 mM DTNB in 50 mM KPi and 200 mM NaCl, pH 7.8. […] Each reaction was incubated at 37 °C for 30 min. Release of the thiol 3M3SH was measured by reaction with DTNB to form 2-nitro-5-thiobenzoic acid (TNB) which is measured at A412 nm every minute. Background rate of DTNB decomposition was subtracted in each assay. Michaelis–Menten plots were derived from 6 to 8 substrate concentrations using Prism Version 5.01 (GraphPad) to calculate the Kcat and KM. Enzyme concentrations were assumed to be the concentration of PLP-bound enzyme with two active sites per enzyme. Velocity curves for all in vitro kinetics are shown in the supplementary information (Supplementary Information Figures S10–S12). Next, we cloned and overexpressed genes encoding a representative range of PatB-type enzymes, with two MetC proteins as controls (Fig. 2, denoted by coloured dots) and purified the proteins for biochemical analysis.

[2] = substrate: N[C@@H](CCSC[C@H](N)C(=O)O)C(=O)O
Protocol: as §1

[3] = substrate: CC(C)(CCO)SC[C@H](N)C(=O)O
Protocol: as §1

B1: EcMalY (Escherichia coli K-12) (protein)
chain: MFDFSKVVDRHGTWCTQWDYVADRFGTADLLPFTISDMDFATAPCIIEALNQRLMHGVFGYSRWKNDEFLAAIAHWFSTQHYTAIDSQTVVYGPSVIYMVSELIRQWSETGEGVVIHTPAYDAFYKAIEGNQRTVMPVALEKQADGWFCDMGKLEAVLAKPECKIMLLCSPQNPTGKVWTCDELEIMADLCERHGVRVISDEIHMDMVWGEQPHIPWSNVARGDWALLTSGSKSFNIPALTGAYGIIENSSSRDAYLSALKGRDGLSSPSVLALTAHIAAYQQGAPWLDALRIYLKDNLTYIADKMNAAFPELNWQIPQSTYLAWLDLRPLNIDDNALQKALIEQEKVAIMPGYTYGEEGRGFVRLNAGCPRSKLEKGVAGLINAIRAVR
notes: full length; N-terminal MGGGFA and C-terminal ENLYFQG-His10; expressed in E. coli MC1061
With B1 as the protein, how does the Km [1] read?
Its Km is 17490 µM.

What about the kcat [1] of the same protein?
The kcat was 4.4 s⁻¹.

What about the kcat/Km [1] of the same protein?
Its kcat/Km is 252 M⁻¹ s⁻¹.

And the Km [2]?
The Km was 2200 µM.

What about the kcat [2] of the same protein?
Its kcat is 7.63 s⁻¹.

What about the kcat/Km [2] of the same protein?
Its kcat/Km is 3470 M⁻¹ s⁻¹.

B2: CjAecD (Corynebacterium jeikeium K411) (protein)
chain: MNATTQNNNLENTQNTCPQDSAVSVPGLATLRARGTMKWTVYDEDVLPLWVAETDFDTCPAVKQAIQSGVDREYFGYERRNQSVEKALAGFLDRRFGWQIEPTWVRLVPDVVKGVATAIDELTPQGSDVIVPVPSYHPFFDVPSAVKRPKVEVEMTKVKKNGAEEWAFDYAALEAAFASTDNPAGVGAMIVCNPYNPLGRAWRPEELAKLVELAAKYNVRLISDEIHAPVVYAPHKHTPLATLSETAARVTVTVLATSKGWNTAGLHCAQMIFTNPDDRAAMAKVSPLRTGSASTLGQVAAEAAYTDGEAWLDSELEYLEGNLDLLERRLPEVLPGAKFIRPEASFLLWVDLSEVPGLADNPGQKLLEGARVAFNEGTMFGAQGAGHVRINFGTSREILNEALDRIAEFAKEHANN
notes: full length; expressed in E. coli MC1061
What does the source list for B2?
Km [1]: 740 µM; kcat [1]: 1.71 s⁻¹; kcat/Km [1]: 2300 M⁻¹ s⁻¹; Km [2]: 210 µM; kcat [2]: 1.18 s⁻¹; kcat/Km [2]: 5520 M⁻¹ s⁻¹; Km [3]: 800 µM; kcat [3]: 2.65 s⁻¹; kcat/Km [3]: 3160 M⁻¹ s⁻¹

B3: BsPatB (Bacillus subtilis subsp. subtilis str. 168) (protein)
chain: MNFDKREERLGTQSVKWDKTGELFGVTDALPMWVADMDFRAPEAITEALKERLDHGIFGYTTPDQKTKDAVCGWMQNRHGWKVNPESITFSPGVVTALSMAVQAFTEPGDQVVVQPPVYTPFYHMVEKNGRHILHNPLLEKDGAYAIDFEDLETKLSDPSVTLFILCNPHNPSGRSWSREDLLKLGELCLEHGVTVVSDEIHSDLMLYGHKHTPFASLSDDFADISVTCAAPSKTFNIAGLQASAIIIPDRLKRAKFSASLQRNGLGGLNAFAVTAIEAAYSKGGPWLDELITYIEKNMNEAEAFLSTELPKVKMMKPDASYLIWLDFSAYGLSDAELQQRMLKKGKVILEPGTKYGPGGEGFMRLNAGCSLATLQDGLRRIKAALS
notes: full length; N-terminal MGGGFA and C-terminal ENLYFQG-His10; expressed in E. coli MC1061; homodimer, PLP on Lys234
With B3 as the protein, how does the Km [1] read?
Its Km is 380 µM.

What about the kcat [1] of the same protein?
The kcat was 1.92 s⁻¹.

What about the kcat/Km [1] of the same protein?
Its kcat/Km is 5110 M⁻¹ s⁻¹.

And the Km [2]?
Its Km is 660 µM.

What about the kcat [2] of the same protein?
The kcat was 0.55 s⁻¹.

And the kcat/Km [2]?
Its kcat/Km is 839 M⁻¹ s⁻¹.

And the Km [3]?
The Km was 400 µM.

What about the kcat [3] of the same protein?
The kcat was 0.945 s⁻¹.

What about the kcat/Km [3] of the same protein?
The kcat/Km was 2360 M⁻¹ s⁻¹.
